Like-named read-outs stand apart in the source and are kept apart here.
What was measured:
[1] = cited from earlier work
[2] = listed as human sRAGE; cited from earlier work
[3] = test system: transgenic mice expressing the human Swedish mutant amyloid precursor protein (APP); experiment: Mouse model of AD (APP transgenic mice); type: in vivo; conditions: treated for 3 months, versus vehicle and human IgG1
Protocol: Experiments were performed to evaluate whether TTP-4000 could affect amyloid formation and cognitive dysfunction in a mouse model of AD. The experiments utilized transgenic mice expressing the human Swedish mutant amyloid precursor protein (APP) under the control of the PDGF-B chain promoter. Over time, these mice generate high levels of the RAGE ligand, amyloid beta (Aβ).
The APP mice (male) used in this experiment were designed by microinjection of the human APP gene (with the Swedish and London mutations) into mouse eggs under the control of the platelet-derived growth factor B (PDGF-B) chain gene promoter. The mice were generated on a C57BL/6 background and were developed by Molecular Therapeutics Inc. Animals were fed ad libitum and maintained by brother sister mating. The mice generated from this construct develop amyloid deposits starting at 6 months of age. Animals were aged for 6 months and then maintained for 90 days and sacrificed for amyloid quantification.
APP transgenic mice were administered vehicle or TTP4000 every other day [qod (i.p.)] for 90 days starting at 6 months of age. At the end of the experiment, animals were sacrificed and examined for Aβ plaque burden in the brain (i.e., plaque number). A 6-month control APP group was used to determine the baseline of amyloid deposits. In addition, at the end of the study, the animals were subjected to behavioral (Morris water maze) analysis. The investigators were blinded to the study compounds. Samples were given to the mice at 0.25 ml/mouse/every other day.
For histological examination, the animals were anesthetized with an intraperitoneal injection (IP) of sodium pentobarbital (50 mg/kg). The animals were transcardially perfused with 4° C., phosphate-buffered saline (PBS) followed by 4% paraformaldehyde. The brains were removed and placed in 4% paraformaldehyde over night. The brains were processed to paraffin and embedded. Ten serial 30-μm thick sections through the brain were obtained. Sections were subjected to primary antibody overnight at 4° C. (Aβ peptide antibody) in order to detect the amyloid deposits in the brain of the transgenic animals (Guo et al., J. Neurosci., 22:5900-5909 (2002)). Sections were washed in Tris-buffered saline (TBS) and secondary antibody was added and incubated for 1 hour at room temperature. After washing, the sections were incubated as instructed in the Vector ABC Elite kit (Vector Laboratories) and stained with […] (DAB). The reactions were stopped in water and cover-slipped after treatment with xylene. The amyloid area in each section was determined with a computer-assisted image analysis system, consisting of a Power Macintosh computer equipped with a Quick Capture frame grabber card, Hitachi CCD camera mounted on an Olympus microscope and camera stand. NIH Image Analysis Software, v. 1.55 was used. The images were captured and the total area of amyloid was determined over the ten sections. A single operator blinded to treatment status performed all measurements. Summing the amyloid volumes of the sections and dividing by the total number of sections was done to calculate the amyloid volume.
For quantitative analysis, an enzyme-linked immunosorbent assay (ELISA) was used to measure the levels of human total Aβ, Aβtotal and Aβ1-42 in the brains of APP transgenic mice (Biosource International, Camarillo, Calif.). Aβtotal and Aβ1-42 were extracted from mouse brains by guanidine hydrochloride and quantified as described by the manufacturer. […]

[4] = target: T1, amphoterin (Ampho) (Homo sapiens, UniProt P09429); experiment: In vitro ligand binding (ELISA) to immobilized amphoterin; conditions: increasing dilutions of fusion protein; FIG. 7
T1 sequence (P09429 1-215): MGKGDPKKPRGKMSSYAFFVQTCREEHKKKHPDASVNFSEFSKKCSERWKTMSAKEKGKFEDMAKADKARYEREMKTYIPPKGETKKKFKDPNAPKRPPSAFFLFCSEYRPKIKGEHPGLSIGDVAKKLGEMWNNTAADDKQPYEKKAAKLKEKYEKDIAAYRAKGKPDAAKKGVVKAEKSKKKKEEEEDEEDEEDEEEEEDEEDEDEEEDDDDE
Protocol: (§1) For example, the RAGE fusion protein may be used in a binding assay to identify potential RAGE ligands. In one example embodiment of such a binding assay, a known RAGE ligand may coated onto a solid substrate (e.g., Maxisorb plates) at a concentration of about 5 micrograms per well, where each well contains a total volume of about 100 microliters (μL). The plates may be incubated at 4° C. overnight to allow the ligand to absorb. Alternatively, shorter incubation periods at higher temperature (e.g., room temperature) may be used. […] The fusion protein bound to the immobilized ligand may be detected in a variety of ways. […] The bound complex may be detected by adding the alkaline phosphatase substrate, para-nitrophenylphosphate (PNPP), and measuring conversion of PNPP to para-nitrophenol (PNP) as an increase in absorbance at 405 nm. […] Binding was detected by the addition of an immunodetection complex containing a monoclonal mouse anti-human IgG1 diluted 1:11,000 to a final assay concentration (FAC) of 21 ng/100 μL, a biotinylated goat anti-mouse IgG diluted 1:500, to a FAC of […], and an avidin-linked alkaline phosphatase. […] Binding of the complex to the immobilized fusion protein was quantified by measuring conversion of PNPP to para-nitrophenol (PNP) which was measured spectrophotometrically at 405 nm. […]

[5] = target: T2, S100b (S100) (Homo sapiens, UniProt P04271); experiment: In vitro ligand binding (ELISA) to immobilized S100b; conditions: increasing dilutions of fusion protein; FIG. 7
T2 sequence (P04271 1-92): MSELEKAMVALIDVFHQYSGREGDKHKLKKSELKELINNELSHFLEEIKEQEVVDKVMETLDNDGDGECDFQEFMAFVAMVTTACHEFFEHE
Protocol: as §1

[6] = target: T3, amyloid-beta (Abeta) (Homo sapiens, UniProt P05067); experiment: In vitro ligand binding (ELISA) to immobilized amyloid-beta; conditions: increasing dilutions of fusion protein; FIG. 7
T3 construct: Amyloid Beta (1-40) from Biosource; purchased Biosource
Protocol: as §1

T3 sequence (P05067 672-711 limits assumed): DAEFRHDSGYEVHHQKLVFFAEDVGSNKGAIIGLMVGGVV

With “sRAGE: soluble RAGE: the RAGE protein that does not include the transmembrane region or the cytoplasmic tail” as the molecule, how does the half-life ([1]; assessed by retention of immunoreactivity sRAGE) read?
The half-life was “less than 2 hours”.

What about the half-life in plasma [2] of the same molecule?
Its half-life in plasma is “about 2 hours”.

B1: mouse sRAGE: mouse soluble RAGE used as comparator in the AD mouse model (protein, UniProt Q62151 23-340, looked up)
extracellular domain: GQNITARIGEPLVLSCKGAPKKPPQQLEWKLNTGRTEAWKVLSPQGGPWDSVARILPNGSLLLPATGIVDEGTFRCRATNRRGKEVKSNYRVRVYQIPGKPEIVDPASELTASVPNKVGTCVSEGSYPAGTLSWHLDGKLLIPDGKETLVKEETRRHPETGLFTLRSELTVIPTQGGTHPTFSCSFSLGLPRRRPLNTAPIQLRVREPGPPEGIQLLVEPEGGIVAPGGTVTLTCAISAQPPPQVHWIKDGAPLPLAPSPVLLLPEVGHEDEGTYSCVATHPSHGPQESPPVSIRVTETGDEGPAEGSVGESGLGTLA
modifications: extracellular domain
notes: mouse soluble RAGE used as comparator in the AD mouse model
For B1, which “Aβ plaques in the brain” value ([3]; FIG. 14A) is on record?
Its value is “fewer Aβ plaques”.

And the “cognitive dysfunction (Morris water maze)” value ([3]; FIG. 14B)?
Its value is “less cognitive dysfunction”.

B2: rodent sRAGE: rodent soluble RAGE, literature half-life comparator (protein, UniProt Q63495 23-341, looked up)
extracellular domain: GQNITARIGEPLMLSCKGAPKKPTQKLEWKLNTGRTEAWKVLSPQGDPWDSVARILPNGSLLLPAIGIVDEGTFRCRATNRLGKEVKSNYRVRVYQIPGKPEIVNPASELTANVPNKVGTCVSEGSYPAGTLSWHLDGKPLIPDGKGTVVKEETRRHPETGLFTLRSELTVTPAQGGTTPTYSCSFSLGLPRRRPLNTAPIQPRVREPLPPEGIQLLVEPEGGTVAPGGTVTLTCAISAQPPPQIHWIKDGTPLPLAPSPVLLLPEVGHEDEGIYSCVATHPSHGPQESPPVNIRVTETGDEGQAAGSVDGSGLGTLAL
modifications: extracellular domain
notes: rodent soluble RAGE, literature half-life comparator
For B2, which half-life ([1]; in normal and diabetic rats) is on record?
Its half-life is “approximately 20 hours”.

B3: TTP-3000: three domain RAGE fusion protein (SEQ ID NO: 35): human RAGE amino acids 1-136 linked to CH2 and CH3 domains of human IgG (protein)
chain: MAAGTAVGAWVLVLSLWGAVVGAQNITARIGEPLVLKCKGAPKKPPQRLEWKLNTGRTEAWKVLSPQGGGPWDSVARVLPNGSLFLPAVGIQDEGIFRCQAMNRNGKETKSNYRVRVYQIPGKPEIVDSASELTAGPSVFLFPPKPKDTLMISRTPEVTCVVVDVSHEDPEVKFNWYVDGVEVHNAKTKPREEQYNSTYRVVSVLTVLHQDWLNGKEYKCKVSNKALPAPIEKTISKAKGQPREPQVYTLPPSRDELTKNQVSLTCLVKGFYPSDIAVEWESNGQPENNYKTTPPVLDSDGSFFLYSKLTVDKSRWQQGNVFSCSVMHEALHNHYTQKSLSLSPGK
Which results are given for B3?
binding to immobilized amphoterin (absorbance at 405 nm) [4]: specifically interact; binding to immobilized S100b (absorbance at 405 nm) [5]: specifically interact; binding to immobilized amyloid-beta (absorbance at 405 nm) [6]: specifically interact
